From patent US20250179186A1 (REGENTS OF THE UNIVERSITY OF MINNESOTA, published 2025)

How the values were obtained:
[1] = molecular target: T1, human B7-H3 expressed by Mile Sven 1 cells stably transfected to express human B7-H3 (MS1-B7-H3) (human, UniProt Q5ZPR3 29-534); assay: flow cytometry titration of purified His6-tagged Gp2 on MS1-B7-H3 cells, anti-His6 FITC, 1:1 model
T1 construct: whole, on cells; In the FACS sorts it was used as detergent solubilized, non-specifically biotinylated MS1-B7-H3 cell lysate; also called CD276; MS1-B7-H3 cells
T1 sequence (looked up): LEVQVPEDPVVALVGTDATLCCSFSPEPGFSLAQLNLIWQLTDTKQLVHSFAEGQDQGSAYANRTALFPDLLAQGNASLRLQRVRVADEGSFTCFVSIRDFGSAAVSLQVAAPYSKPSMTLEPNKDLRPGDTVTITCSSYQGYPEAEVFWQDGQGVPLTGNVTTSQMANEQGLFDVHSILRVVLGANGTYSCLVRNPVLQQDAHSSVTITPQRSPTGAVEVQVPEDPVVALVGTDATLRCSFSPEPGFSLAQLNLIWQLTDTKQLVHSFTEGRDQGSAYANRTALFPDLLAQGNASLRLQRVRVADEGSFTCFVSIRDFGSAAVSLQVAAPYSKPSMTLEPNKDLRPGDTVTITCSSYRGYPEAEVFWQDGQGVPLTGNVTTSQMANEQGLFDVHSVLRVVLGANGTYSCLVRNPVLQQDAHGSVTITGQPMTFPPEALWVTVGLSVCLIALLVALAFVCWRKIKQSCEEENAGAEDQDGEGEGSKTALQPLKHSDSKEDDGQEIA

[2] = molecular target: T1, human B7-H3 expressed by Mile Sven 1 …; assay: flow cytometry titration of purified His6-tagged fusion on MS1-B7-H3 cells, anti-His6 FITC, 1:1 model

Binder	Kd [1] [nM]	Kd [2] [nM]
Gp2 1.4.3 (designed binder, Purified from E. coli (pET-24b, NheI/BamHI cloning)) KFWATVQHVYSDFGFEVPVYAATLDEALQLAEVRYANSIFMVTRVRPHHHHHH	3.4	
Gp2 1.4.4 (designed binder, Purified from E. coli (pET-24b, NheI/BamHI cloning)) KFWATVQHVYSDFGFEAPVYAATLDEALQLAEVQYANSIFTVTRVRPHHHHHH	1	
Gp21.4.4-L15-SrtA (designed binder, range 60-206; also called Gp2-L15-SrtA fusion; Gp2 fusion construct) KFWATVQHVYSDFGFEAPVYAATLDEALQLAEVQYANSIFTVTRVRPGSGGGSGGGKGGGGTQAKPQIPKDKSKVAGYIEIPDADIKEPVYPGPATPEQLNRGVSFAEENESLDDQNISIAGHTFIDRPNYQFTNLKAAKKGSMVYFKVGNETRKYKMTSIRDVKPTDVGVLDEQKGKDKQLTLITCDDYNEKTGVWEKRKIFVATEVKHHHHHH		1.8
